The values below come from patent US20130064836A1 (Novartis, published 2013).

What is called Kd is the free concentration of one partner at which half of the binding sites on the other are occupied at equilibrium, for simple one-to-one binding. A lower Kd goes with higher affinity. One may read the EC50 as the concentration that produces a half-maximal response. Low readings indicate a more potent agent, high ones a less potent agent.

The target of assay [1] is T1, cynomolgus C5 (Macaca fascicularis) (cynomolgus (Macaca fascicularis), Beta and alpha chains are joined by disulfide bonds; the protein is a serum glycoprotein.).
T1 construct: also called cyno C5; cynoC5
T1 beta: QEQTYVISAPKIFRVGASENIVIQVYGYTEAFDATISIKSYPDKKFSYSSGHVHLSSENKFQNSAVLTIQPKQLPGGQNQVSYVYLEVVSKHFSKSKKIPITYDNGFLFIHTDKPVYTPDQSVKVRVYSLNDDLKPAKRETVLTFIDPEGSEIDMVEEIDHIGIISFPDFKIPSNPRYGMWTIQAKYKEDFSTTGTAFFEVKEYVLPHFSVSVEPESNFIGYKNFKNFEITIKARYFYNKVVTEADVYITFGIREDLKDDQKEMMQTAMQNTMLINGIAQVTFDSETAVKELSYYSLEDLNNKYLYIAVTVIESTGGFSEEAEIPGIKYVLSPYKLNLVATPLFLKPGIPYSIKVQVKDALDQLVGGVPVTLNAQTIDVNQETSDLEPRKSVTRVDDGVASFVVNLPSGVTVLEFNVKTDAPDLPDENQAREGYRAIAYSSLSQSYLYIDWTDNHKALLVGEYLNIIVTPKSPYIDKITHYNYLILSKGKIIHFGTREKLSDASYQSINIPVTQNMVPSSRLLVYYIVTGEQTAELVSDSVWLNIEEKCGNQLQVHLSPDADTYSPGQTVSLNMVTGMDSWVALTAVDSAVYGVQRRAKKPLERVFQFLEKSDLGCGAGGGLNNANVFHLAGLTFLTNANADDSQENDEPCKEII
T1 alpha: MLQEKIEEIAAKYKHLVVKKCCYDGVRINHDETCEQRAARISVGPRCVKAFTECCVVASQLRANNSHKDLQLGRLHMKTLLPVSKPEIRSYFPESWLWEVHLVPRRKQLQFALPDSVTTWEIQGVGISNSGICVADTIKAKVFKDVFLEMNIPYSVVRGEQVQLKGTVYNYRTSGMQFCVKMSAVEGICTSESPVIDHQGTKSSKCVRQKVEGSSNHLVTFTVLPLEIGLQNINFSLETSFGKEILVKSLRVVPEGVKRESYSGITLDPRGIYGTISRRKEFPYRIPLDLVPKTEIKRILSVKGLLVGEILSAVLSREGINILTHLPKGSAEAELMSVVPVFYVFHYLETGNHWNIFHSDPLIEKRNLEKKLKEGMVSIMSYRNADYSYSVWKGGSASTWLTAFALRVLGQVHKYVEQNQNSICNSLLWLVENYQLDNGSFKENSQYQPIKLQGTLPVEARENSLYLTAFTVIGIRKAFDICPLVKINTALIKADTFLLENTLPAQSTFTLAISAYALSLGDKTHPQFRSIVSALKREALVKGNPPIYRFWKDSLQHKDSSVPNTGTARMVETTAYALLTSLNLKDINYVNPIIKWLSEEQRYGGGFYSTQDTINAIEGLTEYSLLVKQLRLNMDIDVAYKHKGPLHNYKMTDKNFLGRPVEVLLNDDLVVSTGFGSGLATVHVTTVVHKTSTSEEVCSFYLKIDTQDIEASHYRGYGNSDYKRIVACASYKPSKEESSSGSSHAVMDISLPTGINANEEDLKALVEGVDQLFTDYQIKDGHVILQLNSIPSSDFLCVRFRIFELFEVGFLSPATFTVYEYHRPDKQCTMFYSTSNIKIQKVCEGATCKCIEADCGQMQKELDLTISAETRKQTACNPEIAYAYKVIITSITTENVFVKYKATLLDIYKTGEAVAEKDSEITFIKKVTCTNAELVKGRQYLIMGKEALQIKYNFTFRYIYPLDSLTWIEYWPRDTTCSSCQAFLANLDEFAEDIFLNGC
In words: affinity chromatography.

In assay [2] the target is T2, human complement C5 protein (human, UniProt P01031 19-673; P01031 678-1676, Beta and alpha chains are joined by disulfide bonds. C5 was biotinylated in some assays.).
T2 construct: Mature C5 is a beta and an alpha chain joined by disulfide bonds after loss of the RPRR linker; also called human C5; hu C5
Nature of the assay: SET (MSD), purified Fab. The procedure:
(§1) Streptavidin MSD plates were coated with 0.2 μg/ml biotinylated human C5 (30 μl/well) and blocked with 5% BSA in PBS. Subsequently the equilibrated samples were transferred to those plates (30 μl per well) and incubated for 20 min.

For assay [3], the target named is T1, cynomolgus C5 (Macaca fascicularis). In words: SET (MSD), purified Fab. As to the method: as §1
For assay [4] the target is unchanged. In words: solution ELISA: Fab with biotinylated antigen on NeutrAvidin plate, His-tag detection [cynoC5 panel]. The procedure: (§2) Fabs were incubated with biotinylated antigen on a Neutravidin plate and detected via the histidin tag.
(In general: In an ELISA, binding on a coated surface is turned into a signal by an enzyme label.)

For assay [5], the target named is T2, human complement C5 protein. Nature of the assay: solution ELISA: Fab with biotinylated antigen on NeutrAvidin plate, His-tag detection [huC5 panel]. The procedure:
as §2

Assay [6] addresses T3, human complement C3 (human, UniProt P01024 23-667; P01024 672-1663).
T3 construct: Counter target in the ELISAs, coated directly or biotinylated; also called human C3
Nature of the assay: solution ELISA: Fab with biotinylated antigen on NeutrAvidin plate, His-tag detection [huC3 panel]. As to the method: as §2

In assay [7] the target is T2, human complement C5 protein. In words: cell-based or functional assay.
For assay [8] the target is unchanged. Nature of the assay: cell-based or functional assay. This is another data set of the same source.
The target in assay [9] is T1, cynomolgus C5 (Macaca fascicularis). In words: cell-based or functional assay.

T3 sequence (P01024 23-667 limits assumed, chain 1 of 2): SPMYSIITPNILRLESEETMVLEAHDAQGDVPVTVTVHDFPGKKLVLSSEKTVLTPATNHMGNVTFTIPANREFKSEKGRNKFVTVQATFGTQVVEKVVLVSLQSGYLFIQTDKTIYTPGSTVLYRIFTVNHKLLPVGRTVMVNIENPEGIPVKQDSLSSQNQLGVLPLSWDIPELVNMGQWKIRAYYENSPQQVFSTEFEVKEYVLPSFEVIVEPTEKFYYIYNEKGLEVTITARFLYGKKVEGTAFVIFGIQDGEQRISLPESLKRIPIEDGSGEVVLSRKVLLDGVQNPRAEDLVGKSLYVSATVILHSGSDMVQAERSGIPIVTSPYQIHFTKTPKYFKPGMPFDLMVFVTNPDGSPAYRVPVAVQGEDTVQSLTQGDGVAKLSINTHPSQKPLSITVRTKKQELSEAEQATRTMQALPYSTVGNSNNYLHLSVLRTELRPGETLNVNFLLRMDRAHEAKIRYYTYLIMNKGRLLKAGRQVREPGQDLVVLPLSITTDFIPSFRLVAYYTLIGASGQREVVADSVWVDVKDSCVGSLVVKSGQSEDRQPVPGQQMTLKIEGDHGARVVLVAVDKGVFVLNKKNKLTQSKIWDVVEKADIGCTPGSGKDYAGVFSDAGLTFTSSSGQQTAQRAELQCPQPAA
T3 sequence (P01024 672-1663 limits assumed, chain 2 of 2): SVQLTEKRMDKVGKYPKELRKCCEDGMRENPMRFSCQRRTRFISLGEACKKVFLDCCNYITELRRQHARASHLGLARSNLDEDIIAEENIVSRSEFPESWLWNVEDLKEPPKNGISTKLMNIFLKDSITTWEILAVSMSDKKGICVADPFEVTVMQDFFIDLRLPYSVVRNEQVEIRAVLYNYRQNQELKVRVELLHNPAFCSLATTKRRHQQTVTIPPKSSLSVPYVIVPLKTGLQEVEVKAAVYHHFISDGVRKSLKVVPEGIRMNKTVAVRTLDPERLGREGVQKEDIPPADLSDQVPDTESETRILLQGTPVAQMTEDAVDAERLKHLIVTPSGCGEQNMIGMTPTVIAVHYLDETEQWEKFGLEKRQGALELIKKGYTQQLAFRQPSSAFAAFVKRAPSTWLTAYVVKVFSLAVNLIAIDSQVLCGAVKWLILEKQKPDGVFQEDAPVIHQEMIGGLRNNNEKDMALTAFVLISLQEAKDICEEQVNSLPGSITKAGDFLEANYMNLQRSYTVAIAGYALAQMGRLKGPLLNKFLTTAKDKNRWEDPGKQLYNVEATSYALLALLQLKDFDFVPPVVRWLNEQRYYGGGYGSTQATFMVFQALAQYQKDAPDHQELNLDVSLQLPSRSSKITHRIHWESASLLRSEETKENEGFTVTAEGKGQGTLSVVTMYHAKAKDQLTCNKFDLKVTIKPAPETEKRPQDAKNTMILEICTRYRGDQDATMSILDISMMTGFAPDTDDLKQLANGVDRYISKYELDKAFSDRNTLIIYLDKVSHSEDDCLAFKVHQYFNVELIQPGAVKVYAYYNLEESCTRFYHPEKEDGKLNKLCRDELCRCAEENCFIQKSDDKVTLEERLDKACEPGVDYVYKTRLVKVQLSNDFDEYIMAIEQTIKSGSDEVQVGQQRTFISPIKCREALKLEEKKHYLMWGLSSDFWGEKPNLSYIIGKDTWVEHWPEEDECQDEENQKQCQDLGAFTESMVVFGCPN

B1: MOR07086 hu IgG1 (antibody, V domains shown)
VH: QVQLVQSGAEVKKPGSSVKVSCKASGGTFSSYAISWVRQAPGQGLEWMGGIGPFFGTANYAQKFQGRVTITADESTSTAYMELSSLRSEDTAVYYCARDTPYFDYWGQGTLVTVSS
VL: DIELTQPPSVSVAPGQTARISCSGDSIPNYYVYWYQQKPGQAPVLVIYDDSNRPSGIPERFSGSNSGNTATLTISGTQAEDEADYYCQSFDSSLNAEVFGGGTKLTVL
Consider B1, for which the binding result in [1] was “binds”.

B2: MOR07871 (Fab, V domains shown)
VH: QVQLVQSGAEVKKPGESLKISCKGSGYSFTSYYIGWVRQMPGKGLEWMGIIDPSDSHTTYSPSFQGQVTISADKSISTAYLQWSSLKASDTAMYYCARYMMRGFDHWGQGTLVTVSS
VL: DIELTQPPSVSVAPGQTARISCSGDSLGDYYAYWYQQKPGQAPVLVIYKDNNRPSGIPERFSGSNSGNTATLTISGTQAEDEADYYCQTWDTGESGVFGGGTKLTVLG
notes: light CS or A
Turning to B2, the values for the Kd in [2] and in assay [3] were 0.003 nM and 0.004 nM, respectively. The EC50 came out at 0.617 nM in assay [4] and 0.849 nM in assay [5]. Also, the binding result in assay [6] is “no binding (tested: 100 nM)”. Further, in assay [7], the “IC50; hemolysis AP, 100 pM human C5 [panel j]” value turned out to be 36.6 pM. Besides, the “IC50; hemolysis AP, 100 pM human C5 [panel f]” value in assay [8] is 54.5 pM. The “IC50; hemolysis AP, 100 pM cyno C5 in 20% human C5-depleted serum [panel a]” value in assay [9] was 0.111 nM. The “IC50; hemolysis AP, 100 pM cyno C5 in 20% human C5-depleted serum [panel f]” value in assay [9] came to 0.137 nM.
